Results: the supplement of paper PMC9876800

System: peptide library, one residue held at a place counted from the S/T acceptor
Assay: relative phosphorylation of the sub-library (ratio to the mean residue at this position); higher = residue favoured
Outline: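 Purified recombinant kinases (human or orthologue constructs) were incubated in 384-well plates with biotinylated degenerate peptide sub-libraries, each fixing one residue at one position around a central Ser/Thr. Peptides were at 50 μM, with 50 μM ATP spiked with γ-32P-ATP, for 90 min under kinase-specific conditions. Spots on streptavidin membranes were phosphorimaged and quantified by densitometry. Relative sub-library phosphorylation is a ratio to the mean residue at that position.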

HUNK, construct: Full length, human, sequence (P57058 whole entry, looked up): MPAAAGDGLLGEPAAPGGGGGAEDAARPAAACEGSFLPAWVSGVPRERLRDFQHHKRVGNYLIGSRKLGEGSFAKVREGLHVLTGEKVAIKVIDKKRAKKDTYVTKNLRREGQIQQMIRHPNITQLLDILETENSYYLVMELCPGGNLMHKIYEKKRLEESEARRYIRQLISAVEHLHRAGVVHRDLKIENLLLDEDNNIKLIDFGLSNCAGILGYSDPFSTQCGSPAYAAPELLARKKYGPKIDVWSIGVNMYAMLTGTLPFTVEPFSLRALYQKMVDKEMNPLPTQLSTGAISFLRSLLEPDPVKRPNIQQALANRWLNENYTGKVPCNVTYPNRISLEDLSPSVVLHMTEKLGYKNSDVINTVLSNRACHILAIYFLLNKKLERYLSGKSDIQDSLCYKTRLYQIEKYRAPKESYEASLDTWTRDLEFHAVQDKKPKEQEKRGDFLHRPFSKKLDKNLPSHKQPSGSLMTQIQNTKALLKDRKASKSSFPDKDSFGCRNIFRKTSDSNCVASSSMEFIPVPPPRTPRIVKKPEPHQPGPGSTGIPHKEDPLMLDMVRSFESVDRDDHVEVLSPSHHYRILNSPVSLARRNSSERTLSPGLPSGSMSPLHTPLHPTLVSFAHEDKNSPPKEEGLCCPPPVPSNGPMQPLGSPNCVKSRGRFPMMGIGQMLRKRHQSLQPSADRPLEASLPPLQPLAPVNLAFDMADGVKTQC
HASPIN, construct: aa452-798, human, sequence (Q8TF76 452-798, looked up): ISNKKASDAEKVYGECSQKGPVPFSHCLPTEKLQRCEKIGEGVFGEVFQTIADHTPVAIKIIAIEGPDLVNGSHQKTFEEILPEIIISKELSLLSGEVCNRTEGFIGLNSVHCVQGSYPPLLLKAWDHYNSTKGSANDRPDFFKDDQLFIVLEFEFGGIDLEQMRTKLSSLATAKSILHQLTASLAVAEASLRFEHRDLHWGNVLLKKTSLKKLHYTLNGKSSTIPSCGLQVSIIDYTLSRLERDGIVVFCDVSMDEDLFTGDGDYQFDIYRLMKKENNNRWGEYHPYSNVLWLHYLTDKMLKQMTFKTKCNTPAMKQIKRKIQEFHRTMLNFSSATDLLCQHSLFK
MAP2K5, construct: Full length, human, sequence (Q13163 whole entry, looked up): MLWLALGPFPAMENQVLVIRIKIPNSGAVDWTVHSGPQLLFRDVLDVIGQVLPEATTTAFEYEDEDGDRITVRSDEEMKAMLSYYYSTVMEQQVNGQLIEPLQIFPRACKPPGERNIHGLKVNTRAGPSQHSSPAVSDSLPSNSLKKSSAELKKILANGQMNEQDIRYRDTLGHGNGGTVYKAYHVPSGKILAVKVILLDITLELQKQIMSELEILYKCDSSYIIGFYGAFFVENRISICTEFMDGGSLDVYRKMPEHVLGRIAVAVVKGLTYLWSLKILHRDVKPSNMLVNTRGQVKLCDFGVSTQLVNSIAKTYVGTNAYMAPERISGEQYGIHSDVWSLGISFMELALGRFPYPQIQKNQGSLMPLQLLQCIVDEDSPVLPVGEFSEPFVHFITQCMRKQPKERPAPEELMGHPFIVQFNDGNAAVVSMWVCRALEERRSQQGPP
GSK3B, construct: Full length, human, sequence (P49841 whole entry, looked up): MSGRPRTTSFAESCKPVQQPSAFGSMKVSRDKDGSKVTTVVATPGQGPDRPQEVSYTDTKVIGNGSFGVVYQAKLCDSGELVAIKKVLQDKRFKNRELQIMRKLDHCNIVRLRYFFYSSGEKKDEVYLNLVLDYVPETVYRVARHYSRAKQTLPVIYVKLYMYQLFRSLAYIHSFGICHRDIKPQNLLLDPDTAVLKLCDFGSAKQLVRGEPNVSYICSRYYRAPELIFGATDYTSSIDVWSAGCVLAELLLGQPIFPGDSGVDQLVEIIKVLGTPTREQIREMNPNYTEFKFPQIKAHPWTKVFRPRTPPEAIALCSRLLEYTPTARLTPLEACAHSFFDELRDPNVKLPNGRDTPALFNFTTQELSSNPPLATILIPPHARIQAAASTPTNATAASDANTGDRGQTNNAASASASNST

GSK3B, construct: Full length, human (from UniProt P49841)
relative phosphorylation
Details | at +1 | at +2 | at +3 | at +4 | at -1 | at -2 | at -3 | at -4 | at -5
A fixed | 0.927 | 1.01 | 0.893 | 0.871 | 1.05 | 1.09 | 1.63 | 1.02 | 1.15
D fixed | 0.826 | 0.857 | 0.911 | 0.938 | 0.885 | 0.92 | 0.898 | 0.969 | 0.83
E fixed | 0.818 | 0.917 | 1.23 | 2.42 | 0.855 | 0.898 | 0.865 | 0.851 | 0.83
F fixed | 0.942 | 1.05 | 1.06 | 0.871 | 0.863 | 0.855 | 0.812 | 0.918 | 1.05
G fixed | 0.928 | 0.92 | 0.966 | 0.843 | 1.17 | 1.1 | 1.47 | 1.18 | 1.21
H fixed | 0.985 | 1.16 | 1.1 | 0.988 | 1.02 | 0.885 | 0.883 | 0.989 | 1.02
I fixed | 1.02 | 0.984 | 0.929 | 0.795 | 0.889 | 1.01 | 0.871 | 0.913 | 1
K fixed | 1.02 | 1.02 | 1.01 | 0.983 | 1.1 | 1.12 | 0.935 | 1.11 | 0.979
L fixed | 0.966 | 0.994 | 0.923 | 0.849 | 0.916 | 0.882 | 0.785 | 0.966 | 1.03
M fixed | 0.975 | 0.99 | 1.06 | 0.911 | 1.08 | 0.882 | 0.891 | 0.943 | 0.968
N fixed | 0.963 | 1.12 | 0.983 | 0.992 | 1.04 | 0.935 | 0.899 | 1.02 | 0.855
P fixed | 1.77 | 0.904 | 0.972 | 0.942 | 1.18 | 1.23 | 1.13 | 1.08 | 1.1
Q fixed | 1 | 1.09 | 0.986 | 0.92 | 1.09 | 0.931 | 0.889 | 0.942 | 0.895
R fixed | 1.01 | 1.05 | 1.05 | 0.848 | 1.06 | 1.48 | 1.36 | 1.06 | 0.973
V fixed | 1.02 | 0.908 | 0.887 | 0.8 | 0.916 | 0.977 | 0.904 | 0.982 | 1.04
W fixed | 0.977 | 1.01 | 0.997 | 1.03 | 0.962 | 0.957 | 0.913 | 1.05 | 1.08
Y fixed | 0.854 | 1.01 | 1.04 | 1 | 0.931 | 0.846 | 0.866 | 1.02 | 0.997
pThr fixed | 1.01 | 1 | 3.53 | 66.5 | 0.946 | 1.02 | 1.15 | 1.16 | 0.927
pTyr fixed | 1.14 | 1.04 | 2.26 | 2.62 | 1.66 | 1.13 | 1 | 1.15 | 0.929

HASPIN, construct: aa452-798, human (from UniProt Q8TF76)
relative phosphorylation
Details | at +1 | at +2 | at +3 | at +4 | at -1 | at -2 | at -3 | at -4 | at -5
A fixed | 0.379 | 1.04 | 0.824 | 0.822 | 0.515 | 2.18 | 0.883 | 0.899 | 0.836
D fixed | 0.166 | 0.469 | 0.344 | 0.766 | 0.155 | 0.679 | 0.544 | 0.634 | 0.517
E fixed | 0.161 | 0.359 | 0.28 | 0.404 | 0.158 | 0.483 | 0.577 | 0.767 | 0.526
F fixed | 0.587 | 0.877 | 0.984 | 0.829 | 0.354 | 0.76 | 0.749 | 0.936 | 0.812
G fixed | 0.467 | 0.751 | 1.02 | 1.03 | 0.615 | 1.17 | 1.1 | 0.985 | 0.887
H fixed | 0.682 | 1.36 | 1.09 | 1.14 | 0.606 | 0.783 | 1.11 | 0.964 | 1.01
I fixed | 0.779 | 0.69 | 0.652 | 0.819 | 0.286 | 0.734 | 0.693 | 0.844 | 2.68
K fixed | 5.48 | 1.95 | 1.81 | 2.09 | 1.5 | 1.39 | 1.92 | 1.39 | 1.23
L fixed | 0.621 | 0.783 | 0.797 | 0.749 | 0.294 | 0.464 | 0.694 | 1.54 | 0.645
M fixed | 0.766 | 1.56 | 0.782 | 1.01 | 0.42 | 0.47 | 0.644 | 0.933 | 0.777
N fixed | 0.295 | 0.762 | 0.801 | 0.86 | 0.427 | 0.737 | 0.941 | 0.738 | 0.763
P fixed | 0.807 | 0.559 | 0.714 | 0.801 | 0.493 | 1.83 | 1.12 | 0.987 | 1.32
Q fixed | 0.469 | 1.19 | 0.819 | 1 | 0.591 | 0.672 | 0.834 | 0.974 | 0.722
R fixed | 2.67 | 1.78 | 3.05 | 1.65 | 9.3 | 1.83 | 2.79 | 1.57 | 1.33
V fixed | 0.622 | 0.657 | 0.731 | 0.714 | 0.285 | 1.27 | 0.768 | 0.951 | 0.982
W fixed | 0.51 | 1.25 | 1.09 | 1.33 | 0.313 | 0.749 | 0.82 | 0.918 | 0.922
Y fixed | 1.54 | 0.971 | 1.21 | 0.979 | 0.683 | 0.809 | 0.807 | 0.969 | 1.05
pThr fixed | 0.315 | 0.44 | 0.466 | 0.648 | 0.379 | 1.23 | 1.14 | 0.928 | 0.991
pTyr fixed | 0.322 | 0.359 | 0.492 | 0.589 | 0.582 | 0.966 | 1.09 | 0.743 | 1.01

HUNK, construct: Full length, human (from UniProt P57058)
relative phosphorylation
Details | at +1 | at +2 | at +3 | at +4 | at -1 | at -2 | at -3 | at -4 | at -5
A fixed | 1.03 | 1.5 | 0.679 | 0.686 | 1.56 | 1.41 | 1.16 | 1.13 | 1.27
D fixed | 0.435 | 0.428 | 2.19 | 1.05 | 0.948 | 0.95 | 0.524 | 0.889 | 0.9
E fixed | 0.527 | 0.447 | 1.01 | 0.957 | 1.04 | 0.921 | 0.728 | 1.19 | 0.832
F fixed | 1.58 | 0.842 | 1.37 | 1.85 | 0.461 | 0.831 | 0.927 | 0.798 | 0.759
G fixed | 0.784 | 0.624 | 0.66 | 0.751 | 1.03 | 0.896 | 1.07 | 1.15 | 1.37
H fixed | 0.814 | 1.65 | 1.04 | 0.811 | 0.795 | 1.05 | 1.97 | 0.947 | 1.09
I fixed | 0.538 | 1.44 | 0.61 | 1.72 | 0.555 | 1 | 0.798 | 0.942 | 0.953
K fixed | 0.713 | 0.591 | 0.493 | 0.609 | 1.38 | 0.725 | 0.726 | 1.02 | 1.23
L fixed | 0.882 | 0.747 | 0.704 | 1.39 | 0.571 | 0.867 | 1.19 | 1.39 | 0.947
M fixed | 1.81 | 0.549 | 0.945 | 1.71 | 1.01 | 0.946 | 1.3 | 1.04 | 0.811
N fixed | 0.794 | 0.829 | 1.85 | 0.873 | 1.11 | 1.28 | 0.675 | 0.993 | 1.03
P fixed | 0.301 | 0.355 | 0.287 | 0.64 | 1.06 | 0.395 | 0.961 | 0.786 | 0.917
Q fixed | 1.73 | 0.582 | 0.661 | 0.712 | 1.17 | 1.3 | 0.749 | 0.797 | 0.725
R fixed | 1.01 | 0.814 | 0.766 | 0.758 | 2.41 | 1.44 | 1.35 | 0.963 | 1.3
V fixed | 0.701 | 2.16 | 0.599 | 0.735 | 0.576 | 1.25 | 0.559 | 0.833 | 0.842
W fixed | 1.49 | 1.7 | 2.1 | 0.853 | 0.626 | 0.916 | 0.991 | 1.15 | 0.943
Y fixed | 1.87 | 1.74 | 1.03 | 0.903 | 0.694 | 0.806 | 1.32 | 0.987 | 1.08
pThr fixed | 1.16 | 1.58 | 0.532 | 0.85 | 0.689 | 1.65 | 0.827 | 0.821 | 0.727
pTyr fixed | 0.97 | 1.71 | 0.92 | 0.972 | 0.873 | 0.669 | 0.897 | 0.783 | 0.806

MAP2K5, construct: Full length, human (from UniProt Q13163)
relative phosphorylation
Details | at +1 | at +2 | at +3 | at +4 | at -1 | at -2 | at -3 | at -4 | at -5
A fixed | 0.719 | 0.806 | 0.742 | 0.876 | 0.985 | 1.01 | 1.02 | 0.982 | 0.924
D fixed | 0.453 | 0.477 | 0.592 | 0.598 | 0.918 | 0.931 | 0.998 | 0.992 | 0.898
E fixed | 0.47 | 0.454 | 0.583 | 0.62 | 0.73 | 0.732 | 0.889 | 0.982 | 0.828
F fixed | 1.12 | 0.912 | 1.29 | 0.97 | 0.899 | 1.75 | 0.962 | 1.08 | 1.2
G fixed | 0.703 | 0.748 | 0.949 | 0.998 | 1.19 | 0.942 | 1.16 | 1.08 | 0.963
H fixed | 0.886 | 2.3 | 1.1 | 1.07 | 1.15 | 1.01 | 1.02 | 1.09 | 1.17
I fixed | 1.52 | 0.717 | 0.919 | 0.898 | 0.706 | 0.696 | 0.744 | 0.74 | 0.856
K fixed | 0.872 | 1.29 | 1.14 | 1.49 | 1.14 | 0.83 | 1.08 | 1.11 | 1.09
L fixed | 1.2 | 0.711 | 1.01 | 0.836 | 1.07 | 0.841 | 0.846 | 0.783 | 0.884
M fixed | 1.62 | 0.928 | 1.06 | 0.956 | 1.11 | 0.866 | 0.943 | 0.944 | 0.889
N fixed | 0.836 | 0.935 | 0.963 | 0.891 | 1.08 | 0.855 | 0.906 | 0.947 | 0.894
P fixed | 0.636 | 0.604 | 0.714 | 1.06 | 0.809 | 0.901 | 1.07 | 0.902 | 0.894
Q fixed | 0.839 | 0.918 | 0.854 | 1.09 | 0.969 | 0.841 | 0.817 | 0.834 | 0.828
R fixed | 1.1 | 1.53 | 1.36 | 1.43 | 1.5 | 1.23 | 1.54 | 1.24 | 1.19
V fixed | 1.2 | 0.736 | 0.781 | 0.774 | 0.711 | 0.771 | 0.684 | 0.791 | 0.843
W fixed | 1.7 | 1.36 | 1.64 | 1.24 | 0.875 | 1.37 | 1.18 | 1.38 | 1.34
Y fixed | 1.14 | 1.57 | 1.3 | 1.21 | 1.17 | 1.43 | 1.14 | 1.12 | 1.32
pThr fixed | 0.902 | 0.728 | 0.733 | 0.792 | 0.844 | 1.07 | 1.34 | 1.17 | 1.29
pTyr fixed | 0.576 | 0.485 | 0.723 | 0.57 | 0.974 | 1.3 | 1.08 | 0.835 | 1.08
